# Experimental data reported in PMC5472308, “Characterization of the regulation of a plant polysaccharide utilization operon and its role in biofilm formation in Bacillus subtilis” (PLoS ONE, 2017).
# Target: His6-GanR (Bacillus subtilis 3610) (UniProt O07008)
# Assay: EMSA
# Details: 10 mM Tris-HCl (pH not stated), 50 mM NaCl, 1 mM EDTA, 5% glycerol, 1 mM DTT, 10 ug/ml BSA, on ice 20 min; Cy3 probes with poly-dIdC, gel 0.5X TBE at 4 C
# Chain of His6-GanR (Bacillus subtilis 3610) (O07008 whole entry): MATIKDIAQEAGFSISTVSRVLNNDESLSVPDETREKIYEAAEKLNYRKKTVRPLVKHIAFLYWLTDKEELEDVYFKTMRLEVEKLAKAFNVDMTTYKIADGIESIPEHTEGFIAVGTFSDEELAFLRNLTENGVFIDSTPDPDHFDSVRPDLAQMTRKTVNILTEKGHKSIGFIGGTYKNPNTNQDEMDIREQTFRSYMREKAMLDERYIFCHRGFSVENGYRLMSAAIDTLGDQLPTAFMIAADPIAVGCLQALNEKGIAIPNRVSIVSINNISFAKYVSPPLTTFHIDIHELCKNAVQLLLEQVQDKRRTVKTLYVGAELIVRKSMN
sequence,measurement,value
GTACGAATTCCCGCGCTGTATTCCGGCTTGAGAACAGCTTTTGAAAAGTAAGCTGTTTGGGAAAGTTAAATAATCTTTAATTCGAGATGTTTTACTTGAAAGTAAATTTCTTTGTCTCTATAATAAAGTCTAAGAGAGACAGAATAATCATTATGCATCTGTATGATAATAATTGATGTGTGATGGATCCGTAC (double strand) [PyvaB (yvaB promoter)],binding,no binding
